Format in all cases: biochemical
In data set [1] the test system is GlcNAc-Man5-GlcNAc-GlcNAc(Fuc)-substituted trastuzumab (formula 26). Nature of the data set: Glycosyltransfer of GalNAz to GlcNAc-Man5-GlcNAc-GlcNAc(Fuc)-substituted trastuzumab, MS analysis. Particulars: UDP-GalNAz 0.5 mM, CeGalNAcT 0.1 mg/mL, 10 mM MnCl2, pH 8.0, 16 hours, 30° C. As to the method:
Trastuzumab transiently expressed in the presence of swainsonine as described in Example 18 (10 mg/mL) was incubated with neuraminidase (0.5 mU/mg IgG) from Vibrio cholerae (commercially available from Sigma-aldrich) in 100 mM sodium acetate pH 6.0 and 2 mM CaCl2 for 16 hrs, which led to complete removal of the sialic acid (two major heavy chain products of 50712 and 50874 Da which correspond to approximately 20 and 70% of the total heavy chain products). When the same reaction was performed in the presence of β(1,4)-galactosidase (3 mU/mg IgG) from Streptococcus pneumoniae (commercially available from Calbiochem), a single major heavy chain product was observed corresponding to trastuzumab with a GlcNAc-Man5-GlcNAc-GlcNAc(Fuc)-substituted heavy chain (c=d=0, 50712 Da, ±90% of total heavy chain product, and minor heavy chain products between 50700 and 50900 Da).
A solution of 50 μg (modified) IgG, 1 M Tris-HCl pH 8.0, 1 mM EDTA and 30 mM DTT with a total volume of approximately 70 μL was incubated for 20 minutes at 37° C. to reduce the disulfide bridges allowing to analyze both light and heavy chain. If present, azide-functionalities are reduced to amines under these conditions. […] The reduced IgG was analyzed by electrospray ionization time-of-flight (ESI-TOF) on a JEOL AccuTOF. […]

Data set [2] relates to GlcNAc2-Man3-GlcNAc-GlcNAc(Fuc)-substituted trastuzumab (formula 27). As to the kind of experiment: Glycosyltransfer of GalNAz to galactosidase-trimmed trastuzumab, MS analysis. Particulars: UDP-GalNAz 0.5 mM, CeGalNAcT 0.1 mg/mL, 10 mM MnCl2, pH 8.0, 16 hours, 22° C. How it is done:
Trastuzumab (10 mg/mL) in 50 mM sodium phosphate pH 6.0 and β(1,4)-galactosidase (3 mU/mg IgG) from Streptococcus pneumoniae (commercially available from Calbiochem) was stirred for 16 hrs at 37° C. prior to analysis by MS. A single major heavy chain product was observed corresponding to trastuzumab with a GlcNAc2-Man3-GlcNAc-GlcNAc(Fuc)-substituted heavy chain (c=d=0, 50592 Da).
(§1) A solution of 50 μg (modified) IgG, 1 M Tris-HCl pH 8.0, 1 mM EDTA and 30 mM DTT with a total volume of approximately 70 μL was incubated for 20 minutes at 37° C. to reduce the disulfide bridges allowing to analyze both light and heavy chain. If present, azide-functionalities are reduced to amines under these conditions. Reduced samples were washed trice with milliQ using an Amicon Ultra-0.5, Ultracel-10 Membrane (Millipore) and concentrated to 10 μM (modified) IgG. The reduced IgG was analyzed by electrospray ionization time-of-flight (ESI-TOF) on a JEOL AccuTOF. Deconvoluted spectra were obtained using Magtran software.
Trastuzumab obtained after trimming with galactosidase (as in Formula 27, preparation described in Example 24) was subjected to the glycosyltransfer protocol with UDP-GalNAz and GalNAcT.

The test system of data set [3] is trimmed trastuzumab (core GlcNAc(Fuc) / core GlcNAc, glycan of formula (1)). As to the kind of experiment: Glycosyltransfer of sugar derivative to trimmed (Endo S deglycosylated) trastuzumab, MS analysis. Particulars: for major heavy chain product, F2-GalNAz transfer to core GlcNAc(Fuc)-substituted trastuzumab: UDP-F2-GalNAz 0.4 mM; for conversion of the starting material into two products: UDP-GalNProSH 2 mM. As to the method: Trimming of IgG glycans was performed using Endo S from Streptococcus pyogenes (commercially available from Genovis, Lund, Sweden). The IgG (10 mg/mL) was incubated with Endo S (40 U/mL) in 25 mM Tris pH 8.0 for approximately 16 hours at 37° C. The deglycosylated IgG was concentrated and washed with 10 mM MnCl2 and 25 mM Tris-HCl pH 8.0 using an Amicon Ultra-0.5, Ultracel-10 Membrane (Millipore).
Trastuzumab was subjected to the trimming protocol above. Analysis of the trimmed antibody was performed on a JEOL AccuToF equipped with an Agilent 1100 HPLC. Samples (2 μL) were reduced with DTT (2 μL) during 10 min and subsequently diluted with H2O (40 μL) prior to injection. […] The two peaks of heavy chain belonged to one major product (49496 Da, 90% of total heavy chain), resulting from core GlcNAc(Fuc) substituted trastuzumab, and a minor product (49351 Da, ±10% of total heavy chain), resulting from core GlcNac substituted trastuzumab. This is an example of a glycoprotein comprising a glycan according to formula (1).
as §1
Enzymatic introduction of galactose derivative (e.g. azido-containing sugar) onto IgG was effected with a GalNAc-transferase or a mutant thereof. The deglycosylated IgG (prepared as described above, 10 mg/mL) was incubated with a modified UDP-galactose derivative (e.g. an azido-modified sugar-UDP derivative) (0.4 mM) and GalNAcT (1 mg/mL) in 10 mM MnCl2 and 25 mM Tris-HCl pH 8.0 for 16 hours at 30° C. The functionalized IgG (e.g. azido-functionalized IgG) was incubated with protein A agarose (40 μL per mg IgG) for 2 hours at 4° C. The protein A agarose was washed three times with PBS and the IgG was eluted with 100 mM glycine-HCl pH 2.7. The eluted IgG was neutralized with 1 M Tris-HCl pH 8.0 and concentrated and washed with PBS using an Amicon Ultra-0.5, Ultracel-10 Membrane (Millipore) to a concentration of 15-20 mg/mL.
Enzymatic introduction of galactose derivative (e.g. thio-containing sugar 21) onto IgG was effected with a GalNAc-transferase or a mutant thereof. The deglycosylated IgG (prepared as described above, 10 mg/mL) was incubated with a modified UDP-galactose derivative (e.g. an thio-modified sugar-UDP derivative) (2 mM) and GalNAcT (0.2 mg/mL) in 10 mM MnCl2 and 50 mM Tris-HCl pH 6.0 for 16 hours at 30° C. The functionalized IgG (e.g. thio-functionalized trastuzumab) was incubated with protein A agarose (40 μL per mg IgG) for 1 hours at rt. The protein A agarose was washed three times with TBS (pH 6.0) and the IgG was eluted with 100 mM glycine-HCl pH 2.5. The eluted IgG was neutralized with 1 M Tris-HCl pH 7.0 and concentrated and washed with 50 mM Tris-HCl pH 6.0 using an Amicon Ultra-0.5, Ultracel-10 Membrane (Millipore) to a concentration of 15-20 mg/mL.

The mark [4] stands for this setting: GalNAcT 1 mg/mL, 10 mM MnCl2, pH 8.0, 16 hours, 30° C.
[5] abbreviates: UDP-GalNAz 0.4 mM, GalNAcT 1 mg/mL, 10 mM MnCl2, pH 8.0, 16 hours, 30° C.

Take “CeGalNAcT: truncated Caenorhabditis elegans β-(1,4)-GalNAcT, amino acids 30-383 of SEQ ID NO: 2 (SEQ ID NO: 6)”: in data set [1], the “conversion into GalNAz-GlcNAc-Man5-GlcNAc-GlcNAc(Fuc)-substituted trastuzumab” value was “complete conversion” and the “major heavy chain product (GalNAz-GlcNAc-Man5-GlcNAc-GlcNAc(Fuc)-substituted)” value was ~90 % of the total heavy chain products. For the same molecule, in data set [2], the “conversion into (GalNAz-GlcNAc)2-Man3-GlcNAc-GlcNAc(Fuc)-substituted trastuzumab” value is on record as “complete conversion” and the “major heavy chain product ((GalNAz-GlcNAc)2-Man3-GlcNAc-GlcNAc(Fuc)-substituted)” value is listed as ~90 % of the total heavy chain products. Besides, the “major heavy chain product, F2-GalNAz transfer to core GlcNAc(Fuc)-substituted trastuzumab” value in data set [3] (setting [4]) is given as “approximately 90 % of total heavy chain”. The “major product, F2-GalNBAz transfer to core GlcNAc(Fuc) substituted trastuzumab heavy chain” value in data set [3] (UDP-F2GalNBAz 7 mM, CeGalNAcT 2 mg/mL, 10 mM MnCl2, pH 8.0, 30° C. overnight) is recorded as “approximately 90 % of total heavy chain”. Also, in data set [3] (setting [5]), the “major product, GalNAz transfer to core GlcNAc(Fuc) substituted trastuzumab” value was 90 % of total heavy chain and the “minor product, GalNAz transfer to core GlcNAc substituted trastuzumab” value is ~10 % of total heavy chain. Further, the “conversion of the starting material into two products” value in data set [3] (CeGalNAcT 1 mg/mL, overnight) is “Full conversion”.

B1: TnGalNAcT: truncated Trichoplusia ni β-(1,4)-GalNAcT, amino acids 33-421 of SEQ ID NO: 4 (SEQ ID NO: 8) (protein)
chain: SPLRTYLYTPLYNATQPTLRNVERLAANWPKKIPSNYIEDSEEYSIKNISLSNHTTRASVVHPPSSITETASKLDKNMTIQDGAFAMISPTPLLITKLMDSIKSYVTTEDGVKKAEAVVTLPLCDSMPPDLGPITLNKTELELEWVEKKFPEVEWGGRYSPPNCTARHRVAIIVPYRDRQQHLAIFLNHMHPFLMKQQIEYGIFIVEQEGNKDFNRAKLMNVGFVESQKLVAEGWQCFVFHDIDLLPLDTRNLYSCPRQPRHMSASIDKLHFKLPYEDIFGGVSAMTLEQFTRVNGFSNKYWGWGGEDDDMSYRLKKINYHIARYKMSIARYAMLDHKKSTPNPKRYQLLSQTSKTFQKDGLSTLEYELVQVVQYHLYTHILVNIDERS
modifications: TnGalNAcT(33-421)
With B1, the “major heavy chain product, F2-GalNAz transfer to core GlcNAc(Fuc)-substituted trastuzumab” value in data set [3] (setting [4]) is “approximately 90 % of total heavy chain”. Moreover, the “conversion, GalNBzN3 transfer to core GlcNAc(Fuc) substituted trastuzumab” value in data set [3] (UDP-GalNBzN3 4 mM, TnGalNAcT 0.7 mg/mL, overnight) was “About 70%”. Moreover, in data set [3] (TnGalNAcT 0.2 mg/mL, overnight), the “conversion of the starting material into two products” value was “Full conversion”. Moreover, the “conversion, GalNPyrN3 transfer to core GlcNAc(Fuc) substituted trastuzumab” value in data set [3] (UDP-GalNPyrN3 4 mM, TnGalNAcT 0.5 mg/mL, overnight) is “About 50%”.

For the origin of these results see patent publication US11046988B2, “Process for the modification of a glycoprotein using a β-(1,4)-N-acetylgalactosaminyl transferase or a mutant thereof” (Synaffix B.V., priority 2014, dated 2021).
